Assay [1] addresses T1, mouse E-selectin extracellular domain with 10 His purification tail (mouse, UniProt Q00690 22-557).
T1 construct: also called soluable mouse E-selectin extracellular domain; muE-Selctin
T1 sequence: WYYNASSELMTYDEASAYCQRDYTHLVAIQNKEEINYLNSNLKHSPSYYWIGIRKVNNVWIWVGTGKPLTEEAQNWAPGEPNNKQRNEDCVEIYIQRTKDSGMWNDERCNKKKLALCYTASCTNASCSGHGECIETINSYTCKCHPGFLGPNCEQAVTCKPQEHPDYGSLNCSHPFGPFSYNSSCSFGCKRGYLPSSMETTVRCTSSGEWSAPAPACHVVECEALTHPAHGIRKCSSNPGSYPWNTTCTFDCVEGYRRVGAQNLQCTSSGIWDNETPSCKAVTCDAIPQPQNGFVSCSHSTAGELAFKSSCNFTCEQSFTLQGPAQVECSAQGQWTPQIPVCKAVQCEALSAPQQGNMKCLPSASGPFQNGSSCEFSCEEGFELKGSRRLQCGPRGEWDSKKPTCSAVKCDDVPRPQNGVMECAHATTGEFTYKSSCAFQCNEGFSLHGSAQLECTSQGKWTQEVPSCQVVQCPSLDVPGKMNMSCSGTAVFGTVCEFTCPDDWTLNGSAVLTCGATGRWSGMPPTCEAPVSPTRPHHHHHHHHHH
The experiment in a line: AlphaLISA competition vs sialyl Lewis A-PAA-biotin. The procedure: The neutralization ability of anti-E-selectin antibodies was measured in an AlphaLISA homogenous competition assay. […] This was incubated at room temperature for 15 minutes, followed by addition of 1.4 μL of human, mouse or cynomolgus monkey E-selectin added to a final concentration of 7 nM. This was again incubated at room temperature for 15 minutes. To this, 1.4 μL AlphaLISA beads was added (Ni-donor/SA-acceptor) for a final assay concentration of 10 μg/mL. This was incubated in the dark at room temperate for at least 10 hours. The plates were then read using the AlphaLISA protocol (Envision).
On the technique in general: In Alpha technology, singlet oxygen from a donor bead excites a nearby acceptor bead.

In assay [2] the target is T2, human E-selectin extracellular domain with 10 His purification tail (human, UniProt P16581 22-556).
T2 construct: also called soluable human E-selectin extracellular domain; rhE-Selectin
T2 sequence: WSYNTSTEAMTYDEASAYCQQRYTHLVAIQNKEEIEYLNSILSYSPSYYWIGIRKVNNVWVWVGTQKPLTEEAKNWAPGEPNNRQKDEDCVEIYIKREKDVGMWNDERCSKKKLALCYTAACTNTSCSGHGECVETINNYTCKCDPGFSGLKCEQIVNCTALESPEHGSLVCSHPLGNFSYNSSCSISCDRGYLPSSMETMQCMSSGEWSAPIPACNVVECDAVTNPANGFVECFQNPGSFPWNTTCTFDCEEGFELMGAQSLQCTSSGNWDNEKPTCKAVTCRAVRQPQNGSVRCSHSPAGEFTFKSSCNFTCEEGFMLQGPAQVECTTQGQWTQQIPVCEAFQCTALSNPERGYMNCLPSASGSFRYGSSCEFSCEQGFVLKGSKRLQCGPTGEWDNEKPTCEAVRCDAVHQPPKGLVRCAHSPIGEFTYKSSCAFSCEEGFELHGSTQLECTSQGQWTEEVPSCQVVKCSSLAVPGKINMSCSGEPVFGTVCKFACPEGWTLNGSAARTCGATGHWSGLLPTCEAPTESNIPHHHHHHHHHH
The experiment in a line: antigen binding ELISA, HRP detection. How it is done:
(§1) 384-well Maxisorp plates were used to capture the human and mouse His-tagged recombinant E-selectin polypeptides. The polypeptides were incubated with chimeric antibodies of varying concentrations and detected with HRP-labeled anti-human IgG1 antibodies.
A general note: In an ELISA, binding on a coated surface is turned into a signal by an enzyme label.

Assay [3] addresses T1, mouse E-selectin extracellular domain …. The experiment in a line: antigen binding ELISA, HRP detection. The procedure:
as §1

Assay [4] deals with T3, human E-selectin, cell-surface expressed (human, UniProt P16581 22-610).
T3 construct: also called CHO-human E-selectin cells; human CHO-E
T3 sequence: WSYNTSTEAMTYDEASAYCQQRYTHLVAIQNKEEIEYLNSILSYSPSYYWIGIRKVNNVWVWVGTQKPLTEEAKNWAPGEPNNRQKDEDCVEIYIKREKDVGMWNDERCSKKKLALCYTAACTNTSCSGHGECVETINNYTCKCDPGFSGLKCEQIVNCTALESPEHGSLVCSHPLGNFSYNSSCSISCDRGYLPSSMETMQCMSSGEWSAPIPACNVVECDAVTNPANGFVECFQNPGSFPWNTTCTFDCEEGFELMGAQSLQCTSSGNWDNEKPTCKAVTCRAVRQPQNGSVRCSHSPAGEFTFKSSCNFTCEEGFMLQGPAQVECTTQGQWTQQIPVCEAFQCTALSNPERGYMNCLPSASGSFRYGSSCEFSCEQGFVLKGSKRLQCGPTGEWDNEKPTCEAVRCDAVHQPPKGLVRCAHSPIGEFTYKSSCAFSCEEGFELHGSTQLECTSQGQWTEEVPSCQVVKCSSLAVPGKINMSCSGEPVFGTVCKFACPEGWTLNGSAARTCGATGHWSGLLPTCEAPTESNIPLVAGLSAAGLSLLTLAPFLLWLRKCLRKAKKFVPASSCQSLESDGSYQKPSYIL
The experiment in a line: competition ELISA on CHO cells vs sialyl Lewis ligand-PAA-biotin/SA-HRP. How it is done: In a static ligand cellular adhesion assay, horse radish peroxidase (HRP) conjugated E-selectin ligand (sialyl Lewis antigen) and E-selectin antibodies compete for binding to human or cynomolgus E-selectin expressed on Chinese hamster ovary (CHO) cells. The ability of anti-E-selectin antibodies to neutralize ligand binding was assessed in a static neutralization assay using a competition enzyme-linked immunosorbent assay (ELISA) to evaluate the neutralization of the sialyl Lewis antigen to Chinese hamster ovary cells (CHO) engineered to express human or cynomolgus monkey E-selectin.
CHO cells expressing E-selectin were seeded at 12,500 cells per well into a 96 well tissue culture plate and incubated at 37° C., 5% CO₂ for 48 hours to form a confluent monolayer. Plates were subsequently washed twice with 200 μL of calcium magnesium free PBS. Anti-E-selectin antibodies or an IgG1 isotype control (IgG control) were added to the assay in the presence of a small synthetic conjugate of biotinylated, sialyl Lewis A polyacrylamide (Carbosynth LLC, OS45446) or sialyl Lewis X polyacrylamide (Glycotech, 01-045) with streptavidin/horseradish peroxidase (100 μL total) and incubated at 37° C., 5% CO₂ for 2 hours. Plates were then washed twice with 200 μL of calcium and magnesium free PBS. Following the incubation, the cells were washed twice with 200 μL of wash buffer containing 2 mM of calcium chloride (50 mM TRIS [trisaminomethane], 150 mM sodium chloride; 0.05% polysorbate 20, pH 7.4; 2 mM calcium chloride). Signal was developed by adding 100 μL of 1-Step Ultra TMB substrate (Thermo Scientific, 34028) and incubating for 30 minutes at room temperature. Reactions were stopped using 2 M of sulfuric acid and absorbance was read at 450 nm (Spectramax M5e). Data were analyzed and graphed using GraphPad Prism software (Version 8.0.2).

As usually defined, the EC50 is the concentration at which the effect is half-maximal. The term IC50 denotes the midpoint of a concentration-inhibition curve.

B1: anti-E-selectin antibody 0159 chimera (antibody, human IgG1, kappa, V domains shown)
VH: EVQLQQSGAELGKPGTSVKLSCKVSGYNIRSTYMHWVSQRPGKGLEWIGRIDPANGNTIYAEKFKRKATLTADTSSNTAYMQLSQLKSDDRAIYFCAMEVRVSFEYWGQGVMVTVSS
VL: DIQMTQSPSFLSASVGDRVTINCKASQNINKYLDWYQQKLGEGPKLLIYYTNNLHTGIPSRFSGSGSGTDFTLTISSLQPEDVATYFCLQHDSGYTFGAGTKLELKR
notes: rat VH/VL on effector-null human IgG1 and human kappa
In the case of B1, the EC50 is more than 133 nM in assay [1], 0.02 nM in assay [2] and more than 133 nM in assay [3].

B2: anti-E-selectin antibody 0170 chimera (antibody, human IgG1, kappa, V domains shown)
VH: EVQLQQSGAELGKPGTSVKLSCKVSGYSIRSTYMHWVNQRPGKGLEWVGRIDPANGNTIYAERFKNKATLTADTSSNTAYMQLSQLKSDDTAIYFCAVEILGIFDYWGQGVMVTVSS
VL: DIQMTQSPSFLSASVGDRVTINCKASQNIDKYLDWYQQKLGEAPKLLMYNTNSLHTGIPSRFSGSGSGTDFTLTISSLQPEDVATYFCLQHNSGYTFGAGTKLELKR
notes: as for B1
Consider B2, for which the EC50 is more than 133 nM in assay [1], 0.01 nM in assay [2] and more than 133 nM in assay [3].

B3: anti-E-selectin antibody 0039 chimera (antibody, human IgG1, kappa, V domains shown)
VH: QVQLKETGPGLVQPTQTLSITCTVSGFSLTGYYMQWVRQTPGKGLEWMGFIRSSGSTEYNSEFKSRLSISRDTSKNQVFLKMNSLKTEDTGVYYCARCPYKYSSFVYVGVMDAWGQGAPVTVSS
VL: EIVMTQSPTSMSTSIGERVTLNCKASQTVGINVDWYQQTPGQPPKLLIYGASNRHTGVPDRFTGSGFGRDFTLTISNVEAEDLAVYCCLQYGSIPHTFGPGTKLELKR
notes: as for B1
Regarding B3, the EC50 was more than 133 nM in assay [1], 0.02 nM in assay [2] and more than 133 nM in assay [3].

B4: anti-E-selectin antibody 0180 chimera (antibody, human IgG1, kappa, V domains shown)
VH: EVQLQQSGAELGKPGTSVKLSCKVSGYKIRSSYMHWVNQRPGKGLEWIGRIDPANGNTIYGDKFKSKATLTSDTSSNTAYIQLSQLKSDDTAIYFCAIDIGTTFDYWGQGVMVTVSS
VL: DIQMTQSPSFLSASVGDRVTINCKASQHINRYLNWYQQKLGEAPKLLIYDANNLQTGIPSRFSGSGSGTDFTLTISSLQPEDVATYFCLQHNSWPNTFGAGTKLELKR
notes: as for B1
Regarding B4, the EC50 in assay [1] is more than 133 nM; in assay [2], 0.01 nM; in assay [3] it was more than 133 nM.

B5: humanized anti-E-selectin antibody 0841 (antibody, human IgG1, kappa, V domains shown)
VH: EVQLVESGGGLVQPGGSLRLSCAASGYNIRSSYMHWVRQAPGKGLEWVARIDPANGNTIYAEKFKIRFTISADNAKNSAYLQMNSLRAEDTAVYYCAMDLYSTSEYWGQGTLVTVSS
VL: DIQMTQSPSSLSASVGDRVTITCKTSQNINRYLNWYQQKPGKAPKLLIYNANSLQTGVPSRFSGSGSGTDFTLTISSLQPEDFATYFCLQDNSWPLTFGQGTKVEIKR
notes: effector-null human IgG1, kappa
Molecule B5 came in with an IC50 in assay [4] of 2.56 nM.

B6: optimized anti-E-selectin antibody 1282 (antibody, human IgG1, kappa, V domains shown)
VH: EVQLVESGGGLVQPGGSLRLSCAASGYAIRSAYMHWVRQAPGKGLEWVARIDPANGNTIYVDSVEGRFTISADNAKNSAYLQMNSLRAEDTAVYYCAMDLYSTSEYWGQGTLVTVSS
VL: DIQMTQSPSSLSASVGDRVTITCKTSQNIERYLNWYQQKPGKAPKLLIYAASSLQSGVPSRFSGSGSGTDFTLTISSLQPEDFATYFCLQDNAWPLTFGQGTKVEIKR
notes: as for B5
B6 showed an IC50 in assay [4] of 1.38 nM.

B7: optimized anti-E-selectin antibody 1284 (antibody, human IgG1, kappa, V domains shown)
VH: EVQLVESGGGLVQPGGSLRLSCAASGYAIRSAYMHWVRQAPGKGLEWVARIDPANGNTIYVESVEGRFTISADNAKNSAYLQMNSLRAEDTAVYYCAMDLYSTSEYWGQGTLVTVSS
VL: DIQMTQSPSSLSASVGDRVTITCKTSQNIERYLNWYQQKPGKAPKLLIYAASSLQSGVPSRFSGSGSGTDFTLTISSLQPEDFATYFCLQDNAWPLTFGQGTKVEIKR
notes: as for B5
On to B7, for which the half-maximal inhibitory concentration (IC50) in assay [4] was 2.77 nM.

B8: optimized anti-E-selectin antibody 1448 (antibody, human IgG1, kappa, V domains shown)
VH: EVQLVESGGGLVQPGGSLRLSCAASGYAIRSAYMHWVRQAPGKGLEWVARIDPANGNTIYVDSVKERFTISADNAKNSAYLQMNSLRAEDTAVYYCAMDLYSTSEYWGQGTLVTVSS
VL: DIQMTQSPSSLSASVGDRVTITCKTSQNIERYLNWYQQKPGKAPKLLIYAASSLQSGVPSRFSGSGSGTDFTLTISSLQPEDFATYFCLQDNAWPLTFGQGTKVEIKR
notes: as for B5
In the case of B8, the IC50 in assay [4] turned out to be 2.78 nM.

B9: optimized anti-E-selectin antibody 1444 (antibody, human IgG1, kappa, V domains shown)
VH: EVQLVESGGGLVQPGGSLRLSCAASGYAIRSAYMHWVRQAPGKGLEWVARIDPANGNTIYVDSVTGRFTISADNAKNSAYLQMNSLRAEDTAVYYCAMDLYSTSEYWGQGTLVTVSS
VL: DIQMTQSPSSLSASVGDRVTITCKTSQNIERYLNWYQQKPGKAPKLLIYAASSLQSGVPSRFSGSGSGTDFTLTISSLQPEDFATYFCLQDNAWPLTFGQGTKVEIKR
notes: as for B5
As to B9, the IC50 in assay [4] worked out at 2.89 nM.

B10: anti-E-selectin antibody 0158 chimera (antibody, human IgG1, kappa, V domains shown)
VH: QVQLKESGPGLVQPSETLSLTCTVSGFSISTYNVHWLRQPPGKGLEWMGMMWSGGSPDYNSALKSRLSISRDTSKNQVFLKMNSLQSEDTTTYYCARWGGGFDYWGQGVMVTVSS
VL: DIVLTQSPTTLSVTPGETVSLSCRASHSIGTNLHWYQQKTNESPRLLIKFTSQSISGIPSRFSASGSGTDFTLNINNVEFDDVSSYFCQQTQSWPLTFGSGTKLEIKR
notes: as for B1
With B10, the figures for the EC50 in assay [1], in assay [2] and in assay [3] were more than 133 nM, 0.03 nM and more than 133 nM, respectively.
